Data as given in article PMC10407285 (The Journal of Biological Chemistry, 2023).
Values belong to the molecule of their own block, whether it stands above or below them.

Key:
[1] = target: T1, Ca. Diapherotrites archaeon SpeD homolog (PIN84875) (Candidatus Diapherotrites archaeon CG11_big_fil_rev_8_21_14_0_20_37_9, UniProt A0A2G9N1A6); assay: coupled CO2-release assay (NADH, A340), Michaelis-Menten fit; type: biochemical; details: 50 mM Hepes pH 7.7, 100 mM NaCl, 1 mM DTT, 26 °C; pyruvoyl-dependent decarboxylation
T1 construct: self-processed pyruvoyl enzyme
T1 sequence (A0A2G9N1A6 1-75 limits assumed): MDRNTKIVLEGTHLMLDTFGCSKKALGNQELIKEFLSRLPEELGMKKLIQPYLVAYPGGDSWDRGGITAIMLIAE
T1 sequence (A0A2G9N1A6 76-142 limits assumed): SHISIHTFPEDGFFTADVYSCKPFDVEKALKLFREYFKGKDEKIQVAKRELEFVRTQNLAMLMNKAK
Description: Diapherotrites archaeon SpeD homolog (PIN84875)

[2] = target: T2, Ca. Marinimicrobia bacterium SpeD (PIS27863) (Fidelibacterota bacterium CG08_land_8_20_14_0_20_45_22, UniProt A0A2H0XSF6); assay: as above; type: biochemical, Candidatus Fidelibacterota bacterium; details: 50 mM Hepes pH 7.7, 100 mM NaCl, 1 mM DTT, 26 °C; pyruvoyl-dependent decarboxylation
T2 construct: self-processed pyruvoyl enzyme
T2 sequence (A0A2H0XSF6 1-72 limits assumed): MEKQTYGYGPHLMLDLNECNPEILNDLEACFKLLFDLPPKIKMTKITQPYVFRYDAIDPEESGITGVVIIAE
T2 sequence (A0A2H0XSF6 73-131 limits assumed): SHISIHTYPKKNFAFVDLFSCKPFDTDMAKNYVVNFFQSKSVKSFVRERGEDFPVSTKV
Description: Marinimicrobia bacterium SpeD (PIS27863)

[3] = target: T3, Ca. Woesearchaeota archaeon SpeD homolog (PIN80235) (Candidatus Woesearchaeota archaeon CG10_big_fil_rev_8_21_14_0_10_34_8, UniProt A0A2G9MN15); assay: as above; type: biochemical; details: 50 mM Hepes pH 7.7, 100 mM NaCl, 1 mM DTT, 26 °C; pyruvoyl-dependent decarboxylation
T3 construct: self-processed pyruvoyl enzyme
T3 sequence (A0A2G9MN15 1-79 limits assumed): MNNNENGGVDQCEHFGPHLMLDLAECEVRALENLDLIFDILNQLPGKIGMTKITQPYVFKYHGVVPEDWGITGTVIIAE
T3 sequence (A0A2G9MN15 80-150 limits assumed): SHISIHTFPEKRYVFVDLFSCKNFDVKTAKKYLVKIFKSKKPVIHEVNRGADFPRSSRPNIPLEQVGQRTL
Description: Woesearchaeota archaeon SpeD homolog (PIN80235)

[4] = tested on: Ca. Sumerlaeota bacterium SpeD2 (MBN1518199); details: 50 mM Hepes pH 7.7, 100 mM NaCl, 1 mM DTT, 26 °C; pyruvoyl-dependent decarboxylation
Description: coupled CO2-release assay (NADH, A340), Michaelis-Menten fit on Ca. Sumerlaeota bacterium SpeD2 (MBN1518199)

[5] = target: T4, Ca. Electrothrix aarhusiensis SpeD homolog (RWX43081) (Candidatus Electrothrix aarhusensis, UniProt A0A3S3QFL2); details: 50 mM Hepes pH 7.7, 100 mM NaCl, 1 mM DTT, 26 °C; pyruvoyl-dependent decarboxylation
T4 construct: gene H206_03171
T4 sequence (A0A3S3QFL2 entry or part of it): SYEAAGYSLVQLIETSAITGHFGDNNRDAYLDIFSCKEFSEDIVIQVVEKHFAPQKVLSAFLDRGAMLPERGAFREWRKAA
T4 sequence (A0A3S3QFL2 entry or part of it): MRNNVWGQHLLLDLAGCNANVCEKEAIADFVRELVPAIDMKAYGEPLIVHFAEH
Description: coupled CO2-release assay (NADH, A340), Michaelis-Menten fit on Ca. Electrothrix aarhusiensis SpeD homolog (RWX43081)

[6] = tested on: Ca. Atribacteria bacterium SpeD2 (PIU25646); details: 50 mM Hepes pH 7.7, 100 mM NaCl, 1 mM DTT, 26 °C; pyruvoyl-dependent decarboxylation
Description: coupled CO2-release assay (NADH, A340), Michaelis-Menten fit on Ca. Atribacteria bacterium SpeD2 (PIU25646)

[7] = tested on: Ca. Peribacteria bacterium SpeD (OGJ64158); details: 50 mM Hepes pH 7.7, 100 mM NaCl, 1 mM DTT, 26 °C; pyruvoyl-dependent decarboxylation
Description: coupled CO2-release assay (NADH, A340), Michaelis-Menten fit on Ca. Peribacteria bacterium SpeD (OGJ64158)
N=C(N)NCCC[C@H](N)C(=O)O = assay: purified protein; details: 50 mM Hepes pH 7.7, 100 mM NaCl, 1 mM DTT, 26 °C, pyruvoyl-dependent decarboxylation
purified protein = substrate: NCCC[C@H](N)C(=O)O; assay: purified protein; details: 50 mM Hepes pH 7.7, 100 mM NaCl, 1 mM DTT, 26 °C, pyruvoyl-dependent decarboxylation
[8] = substrate: N=C(N)NCCC[C@H](N)C(=O)O; assay: coupled CO2-release assay (NADH, A340), Michaelis-Menten fit; type: biochemical, Tribonema minus; details: 50 mM Hepes pH 7.7, 100 mM NaCl, 1 mM DTT, 26 °C, pyruvoyl-dependent decarboxylation
Description: coupled CO2-release assay (NADH, A340), Michaelis-Menten fit on Tribonema minus SpeD homolog (KAG5182568)

[9] = substrate: N=C(N)NCCC[C@H](N)C(=O)O; assay: as above; type: biochemical, Capsulimonas corticalis; details: 50 mM Hepes pH 7.7, 100 mM NaCl, 1 mM DTT, 26 °C, pyruvoyl-dependent decarboxylation
Description: coupled CO2-release assay (NADH, A340), Michaelis-Menten fit on Capsulimonas corticalis SpeD homolog (WP_119321511)

Molecule: N=C(N)NCCC[C@H](N)C(=O)O [L-arginine]
Km [1]: 95 ± 19 µM | Km [2]: 760 ± 50 µM | Km [3]: 350 ± 24 µM

Km [4]: 21 ± 1.3 µM | Km [5]: 89 ± 13 µM | Km [6]: 330 ± 30 µM | Km [7]: 270 ± 20 µM
Molecule: NCCC[C@H](N)C(=O)O [L-ornithine]

Molecule: Nannochloropsis gaditana SpeD homolog (XP_005856029) (Microchloropsis gaditana)
Km (N=C(N)NCCC[C@H](N)C(=O)O): 1300 ± 100 µM | kcat (N=C(N)NCCC[C@H](N)C(=O)O): 0.049 ± 0.003 s⁻¹ | kcat/Km (N=C(N)NCCC[C@H](N)C(=O)O): 39 ± 0.3 M⁻¹ s⁻¹

Molecule: Ca. Poseidonales archaeon SpeD homolog (DAC51064) (Candidatus Poseidoniales archaeon)
Km (N=C(N)NCCC[C@H](N)C(=O)O): 2800 ± 500 µM | kcat (N=C(N)NCCC[C@H](N)C(=O)O): 0.48 ± 0.042 s⁻¹ | kcat/Km (N=C(N)NCCC[C@H](N)C(=O)O): 180 ± 19 M⁻¹ s⁻¹

B1: Methanospirillum hungatei JF-1 SpeD2 (WP_011448617) (Methanospirillum hungatei JF-1) (protein)
chain: MIDTLVPTREGIATAPAKSDQEIMEEFKSRNAWGLYTSVDLKNCNPETIRDAGKIREFVIQLCDLIKMKRFGEPQIINFGPCERVAGYSMTQLIETSLIGAHFANETNAAYIDIFSCKEYAPQLTAEFCREFFGADKVTVHIAFRD
Km (purified protein): 230 ± 18 µM | kcat (purified protein): 0.05 s⁻¹ | kcat/Km (purified protein): 220 M⁻¹ s⁻¹

B2: Tribonema minus SpeD homolog (KAG5182568) (Tribonema minus) (protein)
chain: MRVPIQRTTVPQSSPLIRAHGSHIMLDFTEWWMPPEEGAEAVMELVRAALREEGVREVHHKAVVLGTRGESPPGFTAVVLIDESHVTAHCYADRGWLALDVFTCGGASTARVAAAIEAGVRRLSPRAVLQQRASAPRFVHRVD
notes: self-processed pyruvoyl enzyme
Km [8]: 720 ± 110 µM | kcat [8]: 0.08 ± 0.004 s⁻¹ | kcat/Km [8]: 110 ± 10 M⁻¹ s⁻¹

B3: Capsulimonas corticalis SpeD homolog (WP_119321511) (Capsulimonas corticalis) (protein)
chain: MKNHTTYGAHLTLRIANIERRHALQGPHGVSDLLVDLIDRIGMRILAGPLTAEETGDPERRGWSSVAILYESHCAIHTYPELGEAFLDVFSCKTFPIAAITTLLTERFGEFAIVEQSLTDRGIHWGPNVEKELASWVLTRSEK
notes: as for B2
Km [9]: 370 ± 50 µM | kcat [9]: 0.08 ± 0.003 s⁻¹ | kcat/Km [9]: 220 ± 36 M⁻¹ s⁻¹

B4: Ca. Velamenicoccus archaeovorus LiM SpeD homolog (WP_128700171) (Candidatus Velamenicoccus archaeovorus) (protein)
chain: MPKNVTMPAGSFGLEVVLDLYGCDPQTIRSAKKLSEFTTKLCKLLKMKKYGKTLLPHFGYDKAHTAGYSMLQFIETSSITGHFSELWNSAYINIFSCREFDAHKAADFTVKFFGARKATRRVLLRK
Km (purified protein): 73 ± 3.2 µM | kcat (purified protein): 0.008 s⁻¹ | kcat/Km (purified protein): 113 M⁻¹ s⁻¹
